Substitutions are numbered along the chain they refer to.
T1: recombinant human LRP6-Fc chimera (human, UniProt O75581 20-1370)
T1 construct: extracellular domain; also called ECD of human LRP6; not shown: Fc part of the chimera
T1 sequence (looked up): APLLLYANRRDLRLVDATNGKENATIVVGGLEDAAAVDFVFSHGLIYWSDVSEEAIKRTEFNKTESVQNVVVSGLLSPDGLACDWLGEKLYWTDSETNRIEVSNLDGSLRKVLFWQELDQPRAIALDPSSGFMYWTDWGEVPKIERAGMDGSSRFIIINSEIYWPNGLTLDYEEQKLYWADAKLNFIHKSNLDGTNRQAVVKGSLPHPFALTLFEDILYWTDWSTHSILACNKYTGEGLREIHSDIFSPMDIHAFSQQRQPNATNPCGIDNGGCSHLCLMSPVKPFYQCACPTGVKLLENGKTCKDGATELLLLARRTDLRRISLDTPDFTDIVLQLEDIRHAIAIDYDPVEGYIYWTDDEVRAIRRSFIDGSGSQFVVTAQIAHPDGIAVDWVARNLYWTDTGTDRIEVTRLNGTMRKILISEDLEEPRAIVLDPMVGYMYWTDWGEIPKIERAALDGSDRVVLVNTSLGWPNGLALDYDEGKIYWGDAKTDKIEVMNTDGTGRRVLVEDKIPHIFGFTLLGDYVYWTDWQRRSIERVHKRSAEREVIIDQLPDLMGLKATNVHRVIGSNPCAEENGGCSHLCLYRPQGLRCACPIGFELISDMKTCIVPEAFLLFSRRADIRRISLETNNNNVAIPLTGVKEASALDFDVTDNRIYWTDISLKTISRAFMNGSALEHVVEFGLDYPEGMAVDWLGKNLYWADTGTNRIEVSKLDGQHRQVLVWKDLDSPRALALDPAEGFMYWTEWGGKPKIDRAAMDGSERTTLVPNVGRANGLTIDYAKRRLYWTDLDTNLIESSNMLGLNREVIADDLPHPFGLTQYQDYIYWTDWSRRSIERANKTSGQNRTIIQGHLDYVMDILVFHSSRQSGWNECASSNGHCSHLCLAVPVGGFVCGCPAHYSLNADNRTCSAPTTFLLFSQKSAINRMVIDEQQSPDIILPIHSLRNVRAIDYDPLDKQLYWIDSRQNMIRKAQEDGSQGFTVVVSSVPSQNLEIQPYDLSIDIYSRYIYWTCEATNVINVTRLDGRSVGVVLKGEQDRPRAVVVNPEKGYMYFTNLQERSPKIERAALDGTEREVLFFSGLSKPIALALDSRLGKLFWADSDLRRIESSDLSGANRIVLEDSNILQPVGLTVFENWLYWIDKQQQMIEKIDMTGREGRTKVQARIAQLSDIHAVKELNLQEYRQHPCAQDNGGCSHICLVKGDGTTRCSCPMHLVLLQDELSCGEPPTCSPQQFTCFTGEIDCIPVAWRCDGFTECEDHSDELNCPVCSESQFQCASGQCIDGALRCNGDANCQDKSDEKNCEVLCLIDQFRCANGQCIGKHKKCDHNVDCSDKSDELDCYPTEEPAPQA

T2: recombinant mouse LRP5-His chimera (mouse, UniProt Q91VN0 31-1383)
T2 construct: extracellular domain; also called ECD of mouse LRP5; not shown: His tag
T2 sequence (looked up): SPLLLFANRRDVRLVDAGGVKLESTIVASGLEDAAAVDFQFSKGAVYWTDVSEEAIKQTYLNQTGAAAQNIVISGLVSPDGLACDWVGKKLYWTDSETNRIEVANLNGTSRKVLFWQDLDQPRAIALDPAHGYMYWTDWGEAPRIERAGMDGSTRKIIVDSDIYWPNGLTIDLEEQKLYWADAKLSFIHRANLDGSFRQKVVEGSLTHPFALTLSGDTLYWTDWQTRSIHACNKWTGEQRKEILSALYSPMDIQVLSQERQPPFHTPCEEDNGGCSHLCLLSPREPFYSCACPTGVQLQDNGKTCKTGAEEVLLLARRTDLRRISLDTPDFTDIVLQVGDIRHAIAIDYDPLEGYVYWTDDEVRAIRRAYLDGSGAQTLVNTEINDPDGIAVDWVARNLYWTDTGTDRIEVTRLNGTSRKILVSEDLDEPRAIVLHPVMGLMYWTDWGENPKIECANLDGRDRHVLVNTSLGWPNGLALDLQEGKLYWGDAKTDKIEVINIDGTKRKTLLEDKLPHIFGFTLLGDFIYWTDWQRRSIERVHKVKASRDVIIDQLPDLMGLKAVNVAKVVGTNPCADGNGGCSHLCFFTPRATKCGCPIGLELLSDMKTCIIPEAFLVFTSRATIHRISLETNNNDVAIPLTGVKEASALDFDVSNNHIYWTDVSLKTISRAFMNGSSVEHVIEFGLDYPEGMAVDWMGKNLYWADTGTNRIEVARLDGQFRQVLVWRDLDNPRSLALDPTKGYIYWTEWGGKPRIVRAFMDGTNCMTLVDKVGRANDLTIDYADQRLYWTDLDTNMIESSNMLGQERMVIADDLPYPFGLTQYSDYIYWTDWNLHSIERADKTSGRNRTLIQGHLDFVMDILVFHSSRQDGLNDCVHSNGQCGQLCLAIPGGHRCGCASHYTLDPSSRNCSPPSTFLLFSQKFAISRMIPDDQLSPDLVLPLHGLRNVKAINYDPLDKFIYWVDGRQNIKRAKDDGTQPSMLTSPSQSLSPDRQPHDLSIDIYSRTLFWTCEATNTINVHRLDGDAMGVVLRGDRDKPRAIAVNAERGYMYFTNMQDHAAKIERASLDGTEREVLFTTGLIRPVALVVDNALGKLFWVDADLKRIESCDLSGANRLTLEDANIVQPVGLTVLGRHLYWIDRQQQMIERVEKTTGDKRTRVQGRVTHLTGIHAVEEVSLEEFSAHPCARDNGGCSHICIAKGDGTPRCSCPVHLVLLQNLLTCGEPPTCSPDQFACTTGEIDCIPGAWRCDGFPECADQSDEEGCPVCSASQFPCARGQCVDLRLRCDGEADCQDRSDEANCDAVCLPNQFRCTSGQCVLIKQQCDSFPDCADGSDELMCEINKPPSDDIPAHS

B1: LRP5-D9 (antibody, V domains shown)
VH: EVQLVESGGGLVQPGGSLRLSCAASGFNISYSYIHWVRQAPGKGLEWVASIYSSYGYTYYADSVKGRFTISADTSKNTAYLQMNSLRAEDTAVYYCARHYSYFFYAMDYWGQGTLVTVSS
VL: DIQMTQSPSSLSASVGDRVTITCRASQSVSSAVAWYQQKPGKAPKLLIYSASSLYSGVPSRFSGSRSGTDFTLTISSLQPEDFATYYCQQASYSPITFGQGTKVEIKR
notes: Fab-phage in the screen
B2: LRP5-G9 (antibody, V domains shown)
VH: EVQLVESGGGLVQPGGSLRLSCAASGFNISYSYIHWVRQAPGKGLEWVASIYSSYGYTYYADSVKGRFTISADTSKNTAYLQMNSLRAEDTAVYYCARWGAYHSSGYGMDYWGQGTLVTVSS
VL: B1 VL with A91S, Y93S
notes: Fab-phage in the screen
B3: LRP5-H9 (antibody, V domains shown)
VH: EVQLVESGGGLVQPGGSLRLSCAASGFNIYSYYIHWVRQAPGKGLEWVASIYSYYGYTYYADSVKGRFTISADTSKNTAYLQMNSLRAEDTAVYYCARSYPAMDYWGQGTLVTVSS
VL: B1 VL with A91S
notes: Fab-phage in the screen
B4: LRP5-A7 (antibody, V domains shown)
VH: EVQLVESGGGLVQPGGSLRLSCAASGFNLSYSSMHWVRQAPGKGLEWVASIYPYYGYTYYADSVKGRFTISADTSKNTAYLQMNSLRAEDTAVYYCARHGAMDYWGQGTLVTVSS
VL: DIQMTQSPSSLSASVGDRVTITCRASQSVSSAVAWYQQKPGKAPKLLIYSASSLYSGVPSRFSGSRSGTDFTLTISSLQPEDFATYYCQQAWGWGLFTFGQGTKVEIKR
notes: Fab-phage in the screen; also called LRP5-47
B5: LRP5-E5 (antibody, V domains shown)
VH: EVQLVESGGGLVQPGGSLRLSCAASGFNIYSYSIHWVRQAPGKGLEWVASIYPYSSYTSYADSVKGRFTISADTSKNTAYLQMNSLRAEDTAVYYCARYAVYFPGYYWGMDYWGQGTLVTVSS
VL: B4 VL with A91Y, W92H, G93Y, W94Y, G95Y
notes: Fab-phage in the screen
B6: LRP5-C12 (antibody, V domains shown)
VH: EVQLVESGGGLVQPGGSLRLSCAASGFNFSSSSIHWVRQAPGKGLEWVASIYSSYGSTSYADSVKGRFTISADTSKNTAYLQMNSLRAEDTAVYYCARTVRGSKKPYFSGWAMDYWGQGTLVTVSS
VL: B4 VL with A91F, W92S, G93H, W94V, G95S, F97I
notes: Fab-phage in the screen
B7: LRP5-H3 (antibody, V domains shown)
VH: EVQLVESGGGLVQPGGSLRLSCAASGFNLYYYYIHWVRQAPGKGLEWVASISPYYGYTSYADSVKGRFTISADTSKNTAYLQMNSLRAEDTAVYYCARSGYGWYAMDYWGQGTLVTVSS
VL: DIQMTQSPSSLSASVGDRVTITCRASQSVSSAVAWYQQKPGKAPKLLIYSASSLYSGVPSRFSGSRSGTDFTLTISSLQPEDFATYYCQQYWFLITFGQGTKVEIKR
notes: Fab-phage in the screen
B8: LRP5-G11 (antibody, V domains shown)
VH: EVQLVESGGGLVQPGGSLRLSCAASGFNISYSYIHWVRQAPGKGLEWVASIYPSYGYTYYADSVKGRFTISADTSKNTAYLQMNSLRAEDTAVYYCARAAPYYGYYYSYAMDYWGQGTLVTVSS
VL: B7 VL with Y91G, W92V, F93S
notes: Fab-phage in the screen
B9: LRP5-A9 (antibody, V domains shown)
VH: EVQLVESGGGLVQPGGSLRLSCAASGFNISSYSIHWVRQAPGKGLEWVASSSYYGYTYYADSVKGRFTISADTSKNTAYLQMNSLRAEDTAVYYCARTVRGSKKPYFSGWAMDYWGQGTLVTVSS
VL: DIQMTQSPSSLSASVGDRVTITCRASQSVSSAVAWYQQKPGKAPKLLIYSASSLYSGVPSRFSGSRSGTDFTLTISSLQPEDFATYYCQQVHYSPYSLITFGQGTKVEIKR
notes: Fab-phage in the screen

Assays:
[1] = biological target: T1, recombinant human LRP6-Fc chimera; test: multipoint competitive ELISA, IgG1; varied competitor printed as recombinant human LRP6-Fc chimera, while paragraph 283 says 'the recombinant antigen'
Text: (§1) The full length IgG1s and the antibody fragments (Fabs) were purified and a single-point ELISA was done to determine the specificity of the antibodies. […] A multipoint competitive ELISA was used to determine the relative affinities of the antibodies to the recombinant antigen.
Table 3 reports the IC50 of LRP5 antibodies as determined by competitive ELISA. The log of the recombinant human LRP6-Fc chimera concentration (x-axis) was plotted against the OD450 reading of the antibody (y-axis). The IC50 was determined by non-linear regression analysis.

[2] = biological target: T2, recombinant mouse LRP5-His chimera; test: single-point ELISA, coated antigen, purified Fab or IgG1, anti-kappa-HRP
Protocol: FIGS. 1A and 1B show sixteen (16) anti-LRP antibodies. (A) The amino acid sequences of the complementarity determining regions (CDR) of the heavy (H) and the light (L) chains are presented. The antibodies were grouped into unique epitopes as determined by competitive ELISAs. (B) Single-point ELISAs were performed on 96-well Maxisorb immune plates coated with ECD's of mouse LRP5, mouse LRP6 and human LRP6 chimeras. The plates were incubated with the purified Fab or IgG1 at the concentrations indicated followed by incubation with horseradish peroxidase (HRP)-conjugated anti-kappa antibody. The wells were washed eight times followed by incubation with 3,3′,5,5′-tetramethylbenzidine/H₂O₂ peroxidase (TMB) substrate for 5-10 min. The reaction was stopped by adding 1M H₃PO₄ and the absorbance was measured spectrometrically at 450 nm in a microtiter plate reader. FIG. 1A discloses “SSVA” as SEQ ID NO: 34, and “SASSLYS” as SEQ ID NO: 35, as well as SEQ ID NOS 36-49, 51, 44, 2-4, 4, 5-7, 5, 4, 5, 8-10, 4, 52, 55, 11-16, 15, 15, 13, 17-20, 13, 53, 56, 21-23, 22, 24-33, 54, 57, respectively, in order of columns.
as §1

Binder | IC50 [1] | binding result [2]
B1 | 0.0251 µM | binds
B2 | 0.0264 µM | 
B3 | 0.0375 µM | binds
B4 | 0.00468 µM | binds
B5 |  | binds
B6 |  | binds
B7 |  | binds
B8 | 0.0251 µM | 
B9 |  | binds

Reference: US20230183336A1 (MODMAB THERAPEUTICS, published 2023)
